Target: AchR (Homo sapiens, UniProt P02708)
Assay: ELISA of screened peptide phages on AchR versus streptavidin (OD450)
Assay type: binding
Conditions: absorbance at 450 nm
In short: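 Reported as the ratio of AchR to streptavidin OD450, with TMB read-out after HRP anti-M13 detection. Wells coated with 5 μg/ml target overnight at 4 °C and BSA-blocked, then incubated 1 h at 30 °C with helper-rescued phage from individual plaques.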

[1] = ELISA of selected 14-mer (L3) peptide phages on AchR, Spep-2 positive control
[2] = ELISA of selected 11-mer (L2) peptide phages on AchR, Spep-2 positive control
[3] = phage ELISA, 5 μg/ml AchR, 4th and 5th round biopanning phages

Sequence of AchR (P02708 21-457): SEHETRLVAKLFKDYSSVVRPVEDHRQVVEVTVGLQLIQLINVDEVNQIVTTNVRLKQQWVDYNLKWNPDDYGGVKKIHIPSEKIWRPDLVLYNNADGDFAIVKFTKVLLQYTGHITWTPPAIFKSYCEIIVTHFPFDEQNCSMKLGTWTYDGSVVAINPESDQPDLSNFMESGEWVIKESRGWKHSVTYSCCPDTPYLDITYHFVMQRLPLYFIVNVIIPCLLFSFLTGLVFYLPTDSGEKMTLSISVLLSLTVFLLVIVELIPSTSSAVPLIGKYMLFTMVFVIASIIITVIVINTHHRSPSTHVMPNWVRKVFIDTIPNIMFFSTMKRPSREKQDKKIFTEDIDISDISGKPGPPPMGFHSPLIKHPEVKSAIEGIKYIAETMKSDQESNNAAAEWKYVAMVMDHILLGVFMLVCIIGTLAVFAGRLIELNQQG

| Substance | OD [1] | OD [2] | further results |
| --- | --- | --- | --- |
| L3-190 (VHHKLRRVHLRLDV; AchR binding peptide) [Peptide L3-190] | 0.792 | – | – |
| L2-179 (GIAKSKRNAGR; AchR binding peptide) [Peptide L2-179] | – | 0.716 | – |
| L2-81 (TMWRQRKMSCK; AchR binding peptide) [Peptide L2-81] | – | 0.705 | – |
| L3-54 (FFLRCRRLLGKVQV; AchR binding peptide) [Peptide L3-54] | 0.784 | – | – |
| KMRKFYSK [Peptide L1-189] | – | – | OD [3]: 0.616 |
| RQKKDFLK [Peptide L1-107] | – | – | OD [3]: 0.534 |
| L3-197 (QQIKYKRPTYRMVC; AchR binding peptide) [Peptide L3-197] | 0.771 | – | – |
| RGKRGCER [Peptide L1-54] | – | – | OD [3]: 0.569 |
| L2-25 (RLERPRRELTK; AchR binding peptide) [Peptide L2-25] | – | 0.842 | – |
| L2-23 (QTYRLKKPLQK; AchR binding peptide) [Peptide L2-23] | – | 0.832 | – |
| KWRREGFK [Peptide L1-12] | – | – | OD [3]: 0.691 |
| L3-48 (PHCRQKKFWIRCGT; AchR binding peptide) [Peptide L3-48] | 0.622 | – | – |
| KYKKSFTK [Peptide L1-198] | – | – | OD [3]: 0.63 |
| L2-32 (LYMRCKKQAPR; AchR binding peptide) [Peptide L2-32] | – | 0.64 | – |
| RFRRNFHK [Peptide L1-196] | – | – | OD [3]: 0.583 |
| RVRRSWIR [Peptide L1-72] | – | – | OD [3]: 0.616 |
| L2-111 (GYFRPRKETCK; AchR binding peptide) [Peptide L2-111] | – | 0.594 | – |
| L2-190 (NLVKSKKVEEK; AchR binding peptide) [Peptide L2-190] | – | 0.721 | – |
| L2-49 (YPFKAKRPAEK; AchR binding peptide) [Peptide L2-49] | – | 0.734 | – |
| L2-47 (IEDKGRRINPR; AchR binding peptide) [Peptide L2-47] | – | 0.707 | – |
| L2-194 (HLEKHRRCEFK; AchR binding peptide) [Peptide L2-194] | – | 0.693 | – |
| L3-38 (TVVKSRKCSVRYNW; AchR binding peptide) [Peptide L3-38] | 0.669 | – | – |
| L3-15 (YEPRFKRPYGKWCH; AchR binding peptide) [Peptide L3-15] | 0.859 | – | – |
| L2-199 (EICKNRKPANR; AchR binding peptide) [Peptide L2-199] | – | 0.716 | – |
| L3-39 (DDVKQRKKHPRVQT; AchR binding peptide) [Peptide L3-39] | 0.654 | – | – |
| L3-104 (ASVRDRKMGYKSDG; AchR binding peptide) [Peptide L3-104] | 0.57 | – | – |
